Test results: article PMC11844729 (Science Advances, 2025)

Target: T1, mN2G^SR (mini-nesprin-2G lacking the transmembrane KASH domain, with C-terminal sfGFP-6xHis) (mouse, UniProt Q6ZWQ0-1)
T1 chain: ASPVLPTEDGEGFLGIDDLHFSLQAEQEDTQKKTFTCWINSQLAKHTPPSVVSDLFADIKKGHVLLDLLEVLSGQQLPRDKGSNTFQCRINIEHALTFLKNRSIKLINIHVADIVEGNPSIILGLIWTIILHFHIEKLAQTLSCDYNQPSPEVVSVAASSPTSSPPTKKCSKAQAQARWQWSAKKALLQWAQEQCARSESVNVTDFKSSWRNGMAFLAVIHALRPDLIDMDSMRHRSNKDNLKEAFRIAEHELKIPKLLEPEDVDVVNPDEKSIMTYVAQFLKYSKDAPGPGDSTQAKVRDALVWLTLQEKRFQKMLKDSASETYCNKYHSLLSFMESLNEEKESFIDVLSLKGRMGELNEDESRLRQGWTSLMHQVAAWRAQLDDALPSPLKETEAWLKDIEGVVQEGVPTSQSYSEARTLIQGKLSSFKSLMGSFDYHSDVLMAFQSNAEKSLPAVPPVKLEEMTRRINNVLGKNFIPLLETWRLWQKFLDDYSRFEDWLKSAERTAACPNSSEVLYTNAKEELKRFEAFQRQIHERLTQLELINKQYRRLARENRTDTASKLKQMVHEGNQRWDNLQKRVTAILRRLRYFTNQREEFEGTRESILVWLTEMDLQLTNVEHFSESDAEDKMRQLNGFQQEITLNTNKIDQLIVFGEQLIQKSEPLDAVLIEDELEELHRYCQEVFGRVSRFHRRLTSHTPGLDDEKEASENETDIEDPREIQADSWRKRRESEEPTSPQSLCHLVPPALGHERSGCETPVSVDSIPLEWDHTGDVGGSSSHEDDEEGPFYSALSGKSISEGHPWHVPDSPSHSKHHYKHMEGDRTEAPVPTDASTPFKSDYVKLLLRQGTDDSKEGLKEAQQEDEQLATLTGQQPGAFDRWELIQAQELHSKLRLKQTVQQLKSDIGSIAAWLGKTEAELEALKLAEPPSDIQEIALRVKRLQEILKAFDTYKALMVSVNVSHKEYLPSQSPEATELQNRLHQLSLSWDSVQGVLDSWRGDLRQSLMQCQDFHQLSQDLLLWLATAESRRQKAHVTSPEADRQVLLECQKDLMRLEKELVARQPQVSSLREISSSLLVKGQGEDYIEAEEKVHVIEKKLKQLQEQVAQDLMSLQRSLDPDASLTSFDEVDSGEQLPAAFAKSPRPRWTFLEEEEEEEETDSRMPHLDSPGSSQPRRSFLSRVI
Assay: TIRF microscopy

- fold recruitment to F-actin against mN2G^CH: > 115 fold
B1: kinesin heterotetramer composed of the KIF5B KHC and KLC2 (K5B2) (complex)
chain 1: MADLAECNIKVMCRFRPLNESEVNRGDKYIAKFQGEDTVVIASKPYAFDRVFQSSTSQEQVYNDCAKKIVKDVLEGYNGTIFAYGQTSSGKTHTMEGKLHDPEGMGIIPRIVQDIFNYIYSMDENLEFHIKVSYFEIYLDKIRDLLDVSKTNLSVHEDKNRVPYVKGCTERFVCSPDEVMDTIDEGKSNRHVAVTNMNEHSSRSHSIFLINVKQENTQTEQKLSGKLYLVDLAGSEKVSKTGAEGAVLDEAKNINKSLSALGNVISALAEGSTYVPYRDSKMTRILQDSLGGNCRTTIVICCSPSSYNESETKSTLLFGQRAKTIKNTVCVNVELTAEQWKKKYEKEKEKNKILRNTIQWLENELNRWRNGETVPIDEQFDKEKANLEAFTVDKDITLTNDKPATAIGVIGNFTDAERRKCEEEIAKLYKQLDDKDEEINQQSQLVEKLKTQMLDQEELLASTRRDQDNMQAELNRLQAENDASKEEVKEVLQALEELAVNYDQKSQEVEDKTKEYELLSDELNQKSATLASIDAELQKLKEMTNHQKKRAAEMMASLLKDLAEIGIAVGNNDVKQPEGTGMIDEEFTVARLYISKMKSEVKTMVKRCKQLESTQTESNKKMEENEKELAACQLRISQHEAKIKSLTEYLQNVEQKKRQLEESVDALSEELVQLRAQEKVHEMEKEHLNKVQTANEVKQAVEQQIQSHRETHQKQISSLRDEVEAKAKLITDLQDQNQKMMLEQERLRVEHEKLKATDQEKSRKLHELTVMQDRREQARQDLKGLEETVAKELQTLHNLRKLFVQDLATRVKKSAEIDSDDTGGSAAQKQKISFLENNLEQLTKVHKQLVRDNADLRCELPKLEKRLRATAERVKALESALKEAKENASRDRKRYQQEVDRIKEAVRSKNMARRGHSAQIAKPIRPGQHPAASPTHPSAIRGGGAFVQNSQPVAVRGGGGKQV
chain 2: MAMMVFPREEKLSQDEIVLGTKAVIQGLETLRGEHRALLAPLVAPEAGEAEPGSQERCILLRRSLEAIELGLGEAQVILALSSHLGAVESEKQKLRAQVRRLVQENQWLREELAGTQQKLQRSEQAVAQLEEEKQHLLFMSQIRKLDEDASPNEEKGDVPKDTLDDLFPNEDEQSPAPSPGGGDVSGQHGGYEIPARLRTLHNLVIQYASQGRYEVAVPLCKQALEDLEKTSGHDHPDVATMLNILALVYRDQNKYKEAAHLLNDALAIREKTLGKDHPAVAATLNNLAVLYGKRGKYKEAEPLCKRALEIREKVLGKFHPDVAKQLSNLALLCQNQGKAEEVEYYYRRALEIYATRLGPDDPNVAKTKNNLASCYLKQGKYQDAETLYKEILTRAHEKEFGSVNGDNKPIWMHAEEREESKDKRRDSAPYGEYGSWYKACKVDSPTVNTTLRSLGALYRRQGKLEAAHTLEDCASRNRKQGLDPASQTKVVELLKDGSGRRGDRRSSRDMAGGAGPRSESDLEDVGPTAEWNGDGSGSLRRSGSFGKLRDALRRSSEMLVKKLQGGTPQEPPNPRMKRASSLNFLNKSVEEPTQPGGTGLSDSRTLSSSSMDLSRRSSLVG
